Assay results as given in patent publication US20220064286A1 (Genentech, published 2022).
Residue numbers refer to the chain shown, from its start. Names may count otherwise.

T1: hTIGIT mutant H76A (human, UniProt Q495A1)
T1 sequence (TIGIT, looked up): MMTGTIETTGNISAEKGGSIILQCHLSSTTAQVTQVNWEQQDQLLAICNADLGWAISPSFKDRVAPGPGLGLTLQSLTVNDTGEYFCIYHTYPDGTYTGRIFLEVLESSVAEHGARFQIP

T2: hTIGIT mutant L65A (human, UniProt Q495A1)
T2 sequence (TIGIT, looked up): T1 sequence (TIGIT, looked up) with L44A, A55H

T3: hTIGIT mutant N70A (human, UniProt Q495A1)
T3 sequence (TIGIT, looked up): T1 sequence (TIGIT, looked up) with N49A, A55H

T4: hTIGIT mutant H111A (human, UniProt Q495A1)
T4 sequence (TIGIT, looked up): T1 sequence (TIGIT, looked up) with A55H, H90A

T5: hTIGIT mutant Q56A (human, UniProt Q495A1)
T5 sequence (TIGIT, looked up): T1 sequence (TIGIT, looked up) with Q35A, A55H

T6: hTIGIT mutant I68A (human, UniProt Q495A1)
T6 sequence (TIGIT, looked up): T1 sequence (TIGIT, looked up) with I47A, A55H

T7: hTIGIT mutant T117A (human, UniProt Q495A1)
T7 sequence (TIGIT, looked up): T1 sequence (TIGIT, looked up) with A55H, T96A

T8: hTIGIT mutant E60A (human, UniProt Q495A1)
T8 sequence (TIGIT, looked up): T1 sequence (TIGIT, looked up) with E39A, A55H

B1: 10A7 (antibody, V domains shown)
VH: EVQLVESGGGLTQPGKSLKLSCEASGFTFSSFTMHWVRQSPGKGLEWVAFIRSGSGIVFYADAVRGRFTISRDNAKNLLFLQMNDLKSEDTAMYYCARRPLGHNTFDSWGQGTLVTVSS
VL: DIVMTQSPSSLAVSPGEKVTMTCKSSQSLYYSGVKENLLAWYQQKPGQSPKLLIYYASIRFTGVPDRFTGSGSGTDYTLTITSVQAEDMGQYFCQQGINNPLTFGDGTKLEIKR
B2: 4.1D3 (antibody, V domains shown)
VH: QVQLQQSGPGLVKPSQTLSLTCAISGDSVSSNSAAWNWIRQSPSRGLEWLGKTYYRFKWYSDYAVSVKGRITINPDTSKNQFSLQLNSVTPEDTAVFYCTRESTTYDLLAGPFDYWGQGTLVTVSS
VL: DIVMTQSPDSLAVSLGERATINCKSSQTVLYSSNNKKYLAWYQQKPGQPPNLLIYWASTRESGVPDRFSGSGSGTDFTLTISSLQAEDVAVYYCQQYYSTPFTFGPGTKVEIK
notes: OMT rat-derived human antibody; also called 4.1D3.Q1
B3: 7.4A3.C96S.Q1E (antibody, V domains shown)
VH: EVQLVQSGSDLKKPGASVRVSCKASGYTFTSYPMNWVRQAPGHGLEWMGWINTNTGNPTYVQGFTGRFVFSLDTSVNTAYLQISSLKAEDTAVYFCARTGGHTYDSYAFDVWGQGTMVTVSS
VL: DIQLTQSPTFLSASVGDRVTITCRASQVISSSLAWYQQNPGKAPKLLIYAASTLQSGVPSRFSGSGSGTEFTLTISSLQPEDFVTYYCQHLHGYPSNFGQGTKVEIK
notes: also called 7.4A3.Q1E.C96S

The binders below were run against T1, hTIGIT mutant H76A (assay: SPR (BIACORE) KD normalized to WT, N=2).

Binding affinity drop vs. WT [fold] | Binder
> 11 | B1
1.4 | B2
2.3 | B3

These binders were tested against T2, hTIGIT mutant L65A (assay: SPR (BIACORE) KD normalized to WT, N=2).

Binding affinity drop vs. WT [fold] | Binder
0.2 | B1
17.6 | B2
2.2 | B3

The binders below were run against T3, hTIGIT mutant N70A (assay: SPR (BIACORE) KD normalized to WT, N=2).

Binding affinity drop vs. WT [fold] | Binder
0.5 | B1
3.4 | B2
5.9 | B3

Each binder was assayed against T4, hTIGIT mutant H111A (assay: SPR (BIACORE) KD normalized to WT, N=2).

Binding affinity drop vs. WT [fold] | Binder
0.7 | B1
3.8 | B2
84 | B3

These binders were tested against T5, hTIGIT mutant Q56A (assay: SPR (BIACORE) KD normalized to WT, N=2).

Binding affinity drop vs. WT [fold] | Binder
0.7 | B1
5.4 | B2
13.2 | B3

The binders below were run against T6, hTIGIT mutant I68A (assay: SPR (BIACORE) KD normalized to WT, N=2).

Binding affinity drop vs. WT [fold] | Binder
0.4 | B1
21 | B2
2.7 | B3

What follows are binders tested against T7, hTIGIT mutant T117A (assay: SPR (BIACORE) KD normalized to WT, N=2).

Binding affinity drop vs. WT [fold] | Binder
0.8 | B1
1.4 | B2
1.8 | B3

These binders were tested against T8, hTIGIT mutant E60A (assay: SPR (BIACORE) KD normalized to WT, N=2).

Binding affinity drop vs. WT [fold] | Binder
0.9 | B1
12.2 | B2
2.7 | B3

Each binder was assayed against T1, hTIGIT mutant H76A (assay: SPR (BIACORE), N=2).

Kd [nM] | Binder
> 500 | B1
0.7 | B2
4.2 | B3

These binders were tested against T2, hTIGIT mutant L65A (assay: SPR (BIACORE), N=2).

Kd [nM] | Binder
10.6 | B1
8.8 | B2
3.9 | B3

These binders were tested against T3, hTIGIT mutant N70A (assay: SPR (BIACORE), N=2).

Kd [nM] | Binder
24.3 | B1
1.7 | B2
10.7 | B3

These binders were tested against T4, hTIGIT mutant H111A (assay: SPR (BIACORE), N=2).

Kd [nM] | Binder
33.3 | B1
1.9 | B2
151 | B3

These binders were tested against T5, hTIGIT mutant Q56A (assay: SPR (BIACORE), N=2).

Kd [nM] | Binder
29.5 | B1
2.7 | B2
23.7 | B3

What follows are binders tested against T6, hTIGIT mutant I68A (assay: SPR (BIACORE), N=2).

Kd [nM] | Binder
17.1 | B1
10.5 | B2
4.9 | B3

Each binder was assayed against T7, hTIGIT mutant T117A (assay: SPR (BIACORE), N=2).

Kd [nM] | Binder
36.4 | B1
0.7 | B2
3.3 | B3

The binders below were run against T8, hTIGIT mutant E60A (assay: SPR (BIACORE), N=2).

Kd [nM] | Binder
40.3 | B1
6.1 | B2
4.8 | B3
